Target: T1, gp130-ICD (Homo sapiens, UniProt P40189)
T1 construct: in order to isolate the intracellular portion of human gp130; expressed in transfected cells; host or cells: Saccharomyces cerevisiae strain CG-1945; cDNA obtained by RT-PCR from HepG2 cells and cloned into pGADGH (also pAS2-1)
T1 sequence (P40189 642-918 limits assumed): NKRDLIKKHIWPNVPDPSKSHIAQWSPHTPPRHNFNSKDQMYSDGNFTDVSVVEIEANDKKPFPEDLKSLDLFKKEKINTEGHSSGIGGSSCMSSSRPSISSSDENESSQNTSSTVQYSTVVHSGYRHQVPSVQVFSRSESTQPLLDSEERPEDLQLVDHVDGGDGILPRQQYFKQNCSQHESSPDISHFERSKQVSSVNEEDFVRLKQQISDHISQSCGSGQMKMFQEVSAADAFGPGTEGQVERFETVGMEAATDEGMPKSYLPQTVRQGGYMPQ
Assay: Liquid β-galactosidase (LacZ) assay in yeast two-hybrid system
Format: cell-based
Details: combination of clone E and gp130-ICD in yeast cells; three independent experiments
From the text: We have also performed liquid β-galactosidase assays to quantify transcriptional activity: as shown in the FIG. 5, in the presence of gp130-ICD/GAL4AD the fusion protein clone E/GAL4BD was able to produce a transcriptional activity of lacZ gene about 2 to 3 fold higher than in the absence of gp130-ICD/GAL4AD, thus confirming the interaction detected after the first selection.
Liquid β-Galactosidase Assay
We prepared 5-ml overnight culture in liquid SD selection medium appropriate for plasmids.
We transferred 2 ml of the culture to 8 ml of YPD and incubate at 30° C. for 3-5 hours until the cells are in the mid-log phase (O.D.600=0.5-0.8).
The culture was centrifuged at 14,000 rpm for 30 seconds: in the next step, we remove the supernatants, wash the cells with a volume of Z-buffer and resuspend the pellet in 900 μl of Z buffer.
Immediately, two or more freeze/thaw cycles were performed, placing the tubes in liquid nitrogen and in a 37° C. water bath for 0.5-1 minute. […]
The reaction was stopped by adding 0.4 ml of 1 M Na2CO3: we recorded the time needed to obtain the results and O.D.420 of the samples.
β-galactosidase units were calculated by this formula: β-galactosidase units=1,000×O.D.420/(t×V×O.D.600) […]

Substance: Clone E: peptide isolated by THS, homology group II, SEQ ID NO:6; homology with JAK1 JH4 domain (WGDNEWWRSEPHKMEL)
- β-galactosidase (LacZ) activity in liquid assay: about 3 units/ml
